Measurements: patent publication US20080008648A1

Biological target: human IL13 (human) (UniProt P35225)
Test: cell-based or functional assay

Chain of human IL13 (human) (P35225 35-146 limits assumed): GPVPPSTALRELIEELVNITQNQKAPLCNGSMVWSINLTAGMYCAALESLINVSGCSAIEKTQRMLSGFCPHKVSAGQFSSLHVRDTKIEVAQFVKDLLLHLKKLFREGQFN

anti-IL13 mAb JES10-5A2 (BD Biosciences-Pharmingen) (antibody)
inhibition of IL13-suppressed CD14 expression on human monocytes (complete inhibition): > 80 nM
